T1: SNX5^PX (PX domain of SNX5) (human, UniProt Q9Y5X3 25-172)
T1 construct: PX domain of sorting nexin 5 (SNX5), human; also called SNX5^PX domain; isolated PX domain; source: E. coli BL21 (DE3), purified (Ni-NTA, TEV cleavage, ion exchange, SEC); not shown: His6-MBP, N-terminal, cleaved
T1 sequence (looked up): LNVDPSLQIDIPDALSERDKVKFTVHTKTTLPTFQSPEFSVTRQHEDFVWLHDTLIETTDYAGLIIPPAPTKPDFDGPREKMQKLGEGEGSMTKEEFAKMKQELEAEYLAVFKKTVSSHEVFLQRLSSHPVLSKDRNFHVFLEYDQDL

B1: SNX5^FL (full-length sorting nexin 5) (natural protein, human, UniProt Q9Y5X3 1-404, looked up)
chain: MAAVPELLQQQEEDRSKLRSVSVDLNVDPSLQIDIPDALSERDKVKFTVHTKTTLPTFQSPEFSVTRQHEDFVWLHDTLIETTDYAGLIIPPAPTKPDFDGPREKMQKLGEGEGSMTKEEFAKMKQELEAEYLAVFKKTVSSHEVFLQRLSSHPVLSKDRNFHVFLEYDQDLSVRRKNTKEMFGGFFKSVVKSADEVLFTGVKEVDDFFEQEKNFLINYYNRIKDSCVKADKMTRSHKNVADDYIHTAACLHSLALEEPTVIKKYLLKVAELFEKLRKVEGRVSSDEDLKLTELLRYYMLNIEAAKDLLYRRTKALIDYENSNKALDKARLKSKDVKLAEAHQQECCQKFEQLSESAKEELINFKRKRVAAFRKNLIEMSELEIKHARNNVSLLQSCIDLFKNN
notes: sorting nexin 5 (SNX5), human, full length; Monomer by SEC-MALS; also called SNX5^WT; source: E. coli BL21 (DE3), purified (glutathione Sepharose, TEV cleavage, SEC); not shown: GST, N-terminal, cleaved

How the values were obtained:
Conditions in all cases: both partners purified
[1] = target: T2, ESCPE-1 (SNX1^FL–SNX5^FL heterodimer) (human, UniProt Q13596 1-522; Q9Y5X3 1-404); assay: ITC; 25 °C, 300 mM NaCl, 0.5 mM TCEP, 25 mM HEPES pH 7.5; CI-MPR in the syringe (SNX1^PX in the syringe for its test with the peptide); one-site model
T2 construct: sorting nexin 1 (SNX1), human, full length; sorting nexin 5 (SNX5), human, full length; Single heterodimer by SEC-MALS; The GST tag is called cleavable; also called SNX1–SNX5; SNX1^WT-SNX5^WT; source: E. coli BL21 (DE3), pellets mixed and lysed together, purified (glutathione Sepharose, Ni-NTA, SENP2, ion exchange, SEC); not shown: His6-SUMO3, N-terminal, cleaved; copies: 1 + 1

[2] = target: B1; assay: as above
[3] = target: T2, ESCPE-1 (SNX1^FL–SNX5^FL heterodimer); assay: liposome flotation; CI-MPR_(2330–2491) cross-linked by its N-terminal cysteine to DSPE-Mal (1–6%) on liposomes without phosphoinositides; SNXs incubated 1 h at 4 °C in buffer G; sucrose gradient, floated fraction on SDS-PAGE
[4] = target: B1; assay: as above
His-SUMO-SNX1 = target: T3, His-SUMO-SNX1 (human, UniProt Q13596 1-522); assay: pull-down; 5 µM His-SUMO-SNX1 or mutant held on Ni-NTA beads, 10 µM SNX5 or mutant; 1 h at 4 °C in 150 mM NaCl, 10 mM imidazole, 0.5 mM TCEP, 10 mM HEPES pH 7.5; Coomassie-stained SDS-PAGE
T3 construct: sorting nexin 1 (SNX1), human, full length; Bait of the Ni-NTA pull-down; also called wild-type (WT) SNX1; source: E. coli BL21 (DE3), purified (tag-removal step omitted); not shown: His6-SUMO3, N-terminal, kept

His-SUMO-SNX1 (2× mut)^† = target: T4, His-SUMO-SNX1 (2× mut)^† (human, UniProt Q13596 1-522, F347A | W511A); assay: as above
T4 construct: sorting nexin 1 (SNX1), human, full length, double mutant; Bait of the Ni-NTA pull-down; source: E. coli BL21 (DE3), purified (tag-removal step omitted); not shown: His6-SUMO3, N-terminal, kept

[5] = target: T5, SNX1^FL (full-length sorting nexin 1) (human, UniProt Q13596 1-522); assay: SEC-MALS; 100 μl of protein at 1 mg ml^−1 in 150 mM NaCl, 0.5 mM TCEP, 10 mM HEPES pH 7.5; Superdex 200 Increase 10/300 GL
T5 construct: sorting nexin 1 (SNX1), human, full length; Homodimer by SEC-MALS; also called SNX1 WT; source: E. coli BL21 (DE3), purified (Ni-NTA, SENP2 tag cleavage, ion exchange, SEC); not shown: His6-SUMO3, N-terminal, cleaved

[6] = target: T1, SNX5^PX (PX domain of SNX5); assay: ITC; 25 °C, 300 mM NaCl, 0.5 mM TCEP, 25 mM HEPES pH 7.5; CI-MPR in the syringe (SNX1^PX in the syringe for its test with the peptide); one-site model
[7] = target: T6, SNX1^BAR–SNX5^FL heterodimer (human, UniProt Q13596 301-522; Q9Y5X3 1-404); assay: as above
T6 construct: BAR domain of SNX1, human; sorting nexin 5 (SNX5), human, full length; also called SNX1^BAR–SNX5 partial heterodimer; source: E. coli BL21 (DE3), purified as for SNX1^FL–SNX5^FL; not shown: His6-SUMO3, N-terminal, cleaved; copies: 1 + 1

[8] = target: T1, SNX5^PX (PX domain of SNX5); assay: ITC; 25 °C, 300 mM NaCl, 0.5 mM TCEP, 25 mM HEPES pH 7.5; 445 µM CI-MPR_(2347–2375) peptide titrated into a mix of 100 µM SNX1^BAR and 20 µM SNX5^PX; one-site model

T3 sequence (Q13596 whole entry): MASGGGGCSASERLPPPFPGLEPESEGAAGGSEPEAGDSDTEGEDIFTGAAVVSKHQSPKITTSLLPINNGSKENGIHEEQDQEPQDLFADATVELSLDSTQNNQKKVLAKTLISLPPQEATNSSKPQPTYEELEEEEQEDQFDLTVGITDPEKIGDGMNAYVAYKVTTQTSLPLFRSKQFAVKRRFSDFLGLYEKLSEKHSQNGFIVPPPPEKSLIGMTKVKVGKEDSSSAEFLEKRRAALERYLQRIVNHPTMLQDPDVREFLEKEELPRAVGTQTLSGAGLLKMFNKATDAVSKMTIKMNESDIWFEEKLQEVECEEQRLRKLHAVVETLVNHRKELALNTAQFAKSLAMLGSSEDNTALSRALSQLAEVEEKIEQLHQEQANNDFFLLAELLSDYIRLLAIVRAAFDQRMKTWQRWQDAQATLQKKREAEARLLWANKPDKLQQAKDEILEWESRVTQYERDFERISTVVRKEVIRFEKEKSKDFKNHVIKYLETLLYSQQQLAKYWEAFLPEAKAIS
T2 sequence (Q13596 whole entry, one chain of several): as the sequence (Q13596 whole entry) above
T4 sequence (Q13596 whole entry F347A/W511A): as the sequence (Q13596 whole entry) above, with F347A, W511A counted along it
T6 sequence (Q13596 301-522, chain 1 of 2, one chain of several): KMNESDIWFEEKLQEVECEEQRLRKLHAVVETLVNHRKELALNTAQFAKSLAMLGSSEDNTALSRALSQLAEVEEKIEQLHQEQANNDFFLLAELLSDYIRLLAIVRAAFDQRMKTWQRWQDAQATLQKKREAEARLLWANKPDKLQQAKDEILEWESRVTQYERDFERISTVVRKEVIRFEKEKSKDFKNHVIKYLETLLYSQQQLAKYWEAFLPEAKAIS
T5 sequence (Q13596 whole entry): as the sequence (Q13596 whole entry) above

Row | Kd [1] | binding result (His-SUMO-SNX1) | binding result (His-SUMO-SNX1 (2× mut)^†) | Binder | further results
1 | 2600 nM |  |  | SUMO-CI-MPR_(2330–2491) (entire cytosolic tail domain of CI-MPR) (domain or fragment, UniProt P11717 2330-2491, looked up, cation-independent mannose-6-phosphate receptor (CI-MPR), cytosolic tail, residues 2330-2491; also called CI-MPR tail domain; cytoplasmic domain of the CI-MPR; source: E. coli Rosetta (DE3), purified; not shown: His6-SUMO3, N-terminal, kept) ERRETVISKLTTCCRRSSNVSYKYSKVNKEEETDENETEWLMEEIQLPPPRQGKEGQENGHITTKSVKALSSLHGDDQDSEDEVLTIPEVKVHSGRGAGAESSHPVRNAQSNALQEREDDRVGLVRGEKARKGKSSSAQQKTVSSTKLVSFHDDSDEDLLHI | Kd [2]: ~8800 nM
2 |  |  |  | CI-MPR_(2330–2491) cytosolic tail with an N-terminal cysteine, cross-linked to liposomes (domain or fragment, UniProt P11717 2330-2491, looked up, N-terminal cysteine cross-linked to maleimide-functionalized lipid (DSPE-Mal) on liposomes, cation-independent mannose-6-phosphate receptor (CI-MPR), cytosolic tail, residues 2330-2491; also called CI-MPR tail; source: E. coli Rosetta (DE3), purified, conjugated to DSPE-Mal liposomes; not shown: Cys (added for chemical cross-linking), N-terminal, kept) ERRETVISKLTTCCRRSSNVSYKYSKVNKEEETDENETEWLMEEIQLPPPRQGKEGQENGHITTKSVKALSSLHGDDQDSEDEVLTIPEVKVHSGRGAGAESSHPVRNAQSNALQEREDDRVGLVRGEKARKGKSSSAQQKTVSSTKLVSFHDDSDEDLLHI | binding result [3]: binds; binding result [4]: binds
3 |  | binds | binds | SNX5 (4 mut)^‡ (Y219A, M233A, V240A, R368A) (natural protein, human, UniProt Q9Y5X3 1-404, looked up, sorting nexin 5 (SNX5), human, four point mutations; source: E. coli BL21 (DE3), purified (glutathione Sepharose, TEV cleavage, SEC); not shown: GST, N-terminal, cleaved) MAAVPELLQQQEEDRSKLRSVSVDLNVDPSLQIDIPDALSERDKVKFTVHTKTTLPTFQSPEFSVTRQHEDFVWLHDTLIETTDYAGLIIPPAPTKPDFDGPREKMQKLGEGEGSMTKEEFAKMKQELEAEYLAVFKKTVSSHEVFLQRLSSHPVLSKDRNFHVFLEYDQDLSVRRKNTKEMFGGFFKSVVKSADEVLFTGVKEVDDFFEQEKNFLINAYNRIKDSCVKADKATRSHKNAADDYIHTAACLHSLALEEPTVIKKYLLKVAELFEKLRKVEGRVSSDEDLKLTELLRYYMLNIEAAKDLLYRRTKALIDYENSNKALDKARLKSKDVKLAEAHQQECCQKFEQLSESAKEELINFKRKAVAAFRKNLIEMSELEIKHARNNVSLLQSCIDLFKNN | 
4 |  | binds |  | SNX5 (6 mut)^§ (Y219A, M233A, V240A, R368A, I398A, F401A) (natural protein, human, UniProt Q9Y5X3 1-404, looked up, sorting nexin 5 (SNX5), human, six point mutations; source: E. coli BL21 (DE3), purified (glutathione Sepharose, TEV cleavage, SEC); not shown: GST, N-terminal, cleaved) MAAVPELLQQQEEDRSKLRSVSVDLNVDPSLQIDIPDALSERDKVKFTVHTKTTLPTFQSPEFSVTRQHEDFVWLHDTLIETTDYAGLIIPPAPTKPDFDGPREKMQKLGEGEGSMTKEEFAKMKQELEAEYLAVFKKTVSSHEVFLQRLSSHPVLSKDRNFHVFLEYDQDLSVRRKNTKEMFGGFFKSVVKSADEVLFTGVKEVDDFFEQEKNFLINAYNRIKDSCVKADKATRSHKNAADDYIHTAACLHSLALEEPTVIKKYLLKVAELFEKLRKVEGRVSSDEDLKLTELLRYYMLNIEAAKDLLYRRTKALIDYENSNKALDKARLKSKDVKLAEAHQQECCQKFEQLSESAKEELINFKRKAVAAFRKNLIEMSELEIKHARNNVSLLQSCADLAKNN | 
5 |  | binds | binds | B1 | binding result [5]: binds
6 | 1500 nM |  |  | SNVSYKYSKVNKEEETDENETEWLMEEIQ (peptide, UniProt P11717 2347-2375, looked up, Called a peptide in the ITC methods; also called shorter CI-MPR tail segment) | Kd [6]: ~8000 nM; Kd [7]: ~1900 nM; KD into a mixture of SNX5^PX and SNX1^BAR [8]: ~3200 nM
